The text below walks through data of the DeepSol protein solubility set.

The nature of this series: soluble on expression in E. coli; label from the status in PepcDB or PDB records.
On to “MRQCTPFDTLLVFYSTWPVLKNILTNKIMPAELESVRTRQIVALRTMINLNEPVVNSGVREPVWKVLVLDRTGQDIISPLLPVKQLRELGVTLHLLIGARREPLTDVPAVYFVSPNDENIDLMSEDLKKAMYDSFYCNFISPLARPRLESLASAAVHGGAVSQVQKVVDQYLNFISLEDDLFVLRRYSENSTFSYHAMNSPGTSDVAVNAMLDSIADGLFAVCATMGIVPIIRCPKGNAAEMVAKKLDQKLRDNLRDSRNNLFTMDGVRMGLLQTSRPLLVIGDRSADLATMLHHTWTYQALMHDVLELDQNRVTISTSSTGKKKDYDMATGGSDKLWNNHKGSAFPTVAEAVQENLDDYRSKEDDIKKIKQALGLSGESEAADEALTNVLADTTAKLGSTVMSLPDLLESKRLIDLHTNIATTLLDVIKERKLDVSLSSSKSCCNTHRLVDLFYQPVTQFLSNINHQEDVLRVLIIAFLCQETVNQNGYDQMMNLLRERGIEESALKHVQKLKSISQLGSRAANSAHTEEHQGAGTKTISMFGKLLSHSSKFVMEGVKNLVPKEHNLPLTKMIDSLNTPPSSTGISSAVGINQMIGGSSQGPDIDDIYCFFDPKLMHQPTKETILLARQQSAQDVILFVVGGGNYVEYQNLVDYGKRKNLMRVTYGCTELVNPAQFCDQVSCCSLSLPLTDLSGDSPYFFCSPLEF”, for which the “soluble on expression in E. coli” value is given as “not soluble”.

As to “MERYAAALEEVADGARQQERHYQLLSALQSLVKELPSSFQQRLSYTTLSDLALALLDGTVFEIVQGLLEIQHLTEKSLYNQRLRLQNEHRVLRQALRQKHQEAQQACRPHNLPVVQAAQQRELEAVEHRIREEQRAMDQKIILELDRKVADQQSTLEKAGVAGFYVTTNPQELMLQMNLLELIRKLQQRGCRAGNAALGLGGPWQSPAAQCDQKGSPVPP”, the “soluble on expression in E. coli” value is “soluble”.

Consider “HSIISETTNTNYRQEFVQLGTQMSGKLSFEEWKELYRRIVFWEIELEQADRQMGELLEMQKQEANRLFARFVTQNYREWIAKPDTRPTMSPDLFKQKVFPLLDNGEKVFFILIDNFRQDQWESVKSMLSEFYTFEEDMYLSILPTATQYARNAIFSGLMPLQIEKMFPDLWVDEESEEGKNLNEEPMIRTLIERYRKHYSFSYNKVYETKFGERLLGQIRSLSQNQLNVIVLNFVDMMSHARTDSKMIRELASNEAAYRSLTKSWFKHSTTYNLFRSIAEMGYKVVLTTDHGTIQVKNPVKVIGDRSTNTNLRYKIGKNLDYNPKEVFEIKDPASVGLPHNNLSDKFIFTKEDDFFAYPNNYNYYVQYYRNTFQHGGISLEEMLVPVITMQPK”, for which the “soluble on expression in E. coli” value is reported as “soluble”. Next, “MAAYRADDDYDFLYKVVLIGDSGVGKSNLLSRFTRNEFSLESKSTIGVEFATRSIHVDEKIVKAQIWDTAGQERYRAITSAYYRGAVGALLVYDVTRHVTFENVERWLKELRDHTEANIVIMLVGNKADLRHLRAVSTEDAKAFAERENTFFMETSALEALNVENAFTEVLSQIYRVASKKALDIGDDHTTLPKGQSINVGSKDDVSEVKKVGCCSS”: “soluble”. Turning to “KILSVGSFGCNFVCDFCQNYDISQRKARSTFAPKEELIRIAMTTEDNIGLAFTYNEPSIWYEYMYDCAKLLKETDEKRSVVFVTNGFLSEEPLKKLLPYVDAMNIDLKSFKESYYKSLCGGRLNPVLETIKMAAKVCHVEVTTLLVSGENDNLDEIEEIAKFLASVNSEIPLHLSRYFPRYKLENPPTDVEFMQEAKKTAEKYLKRVMLGNV”, the “soluble on expression in E. coli” value is “not soluble”.

As for “MERISLSFVGDVMLAGSATDTLQRYGYSYPFSATAAELRRSDLVVGNLEAPLTDGGREFRAKRFRFKASPVAAAALKRAGFSVMTLANNHMMDFGADGLSDTIHHLNRNGIAFAGAGPSIADARREASVTVRGQTVAFLAYSLTQPIEFFATEGRPGTAPGYAGHYLADIRRVRSSADHVVVSFHWGQERAALPSPYQIETAHRAIDAGADIVIGHHPHVLQGIEIYRGSPIFYSLGNFAFGSRSPSADRSIIARVTLGEGPPIVEVIPLNVLFREVRFQPAILTGRKAADVVDRLNRLSAPFSTVITSTAGSHLVAPAEANARLARRQLEHHHHHH”, the “soluble on expression in E. coli” value was “not soluble”. Next, “MSSQSNTGNSIEAPQLPIPGQTNGSANVTVDGAGVNVGIQNGSQGQKTGMDLYFDQALNYMGEHPVITGFGAFLTLYFTAGAYKSISKGLNGGKSTTAFLKGGFDPKMNSKEALQILNLTENTLTKKKLKEVHRKIMLANHPDKGGSPFLATKINEAKDFLEKRGISK”: “soluble”; “MDAIKKKMQAMKIEKDNALDRADAAEEKVRQITEKLERVEEELRDTQKKMTQTGDDLDKAQEDLSAATSKLEEKEKTVQEAEAEVASLNRRMTLLEEELERAEERLKIATEKLEEATHNVDESERVRKVMENRSLQDEERANTVEAQLKEAQLLAEEADRKYDEVARKLAMVEADLERAEERAEAGENKIVELEEELRVVGNNLKSLEVSEEKALQREDSYEEQIRTVSSRLKEAETRAEFAERSVQKLQKEVDRLEDELVHEKERYKTISEELDSTFQELSGY”: “not soluble”. Next, “MSSPSGSSRTFPQYQSGSGWNAMLPKRTPRTAAPARRHFKSLVIGAGYTGLAAARRLAELQPQDQVLVVDATVAGEGSAGRNSGFLINLPHNTRMSGHHSPLEVARKQIAMLQSGLDWLAQLSGQGGFDCGWDLAGKYHAAATADGEQSLRGALQQYGQWGVAYSELDRDALQAQLGTRYYRFGYHSMNNVFVQPAALIRGLADSLPENVWLTEDNPVLSIDGSGPYKVRTRGGEFTADNVILANNAFARRLGFLRSRLVTIFTYAGVTPVLSPAQQALLGERDQWGVIPANRLGTTLRRISGGRFMVRSAYSYEAEQPLERMEQLLRDSFVRRYPDLAAHDFEYVWSGSTGLTGNGASFVGAIQPGLYASVGCNGAGVIKGTIYGKLLGEQVAGHRSAMLDDLASFEKPNWLPPEPLRRIGALSTIAYQARKAGLEKLEHHHHHH”: “soluble”. In the case of “MAEPTAKAAPYENLMVPSPSMGRDIPVAFLAGGPHAVYLLDAFNAGPDVSNWVTAGNAMNTLAGKGISVVAPAGGAYSMYTNWEQDGSKQWDTFLSAELPDWLAANRGLAPGGHAAVGAAQGGYGAMALAAFHPDRFGFAGSMSGFLYPSNTTTNGAIAAGMQQFGGVDTNGMWGAPQLGRWKWHDPWVHASLLAQNNTRVWVWSPTNPGASDPAAMIGQAAEAMGNSRMFYNQYRSVGGHNGHFDFPASGDNGWGSWAPQLGAMSGDIVGAIRHHHHHH”, the “soluble on expression in E. coli” value is listed as “soluble”. Next, “MGSDKIHHHHHHMTPEMYADKYREYASAMPTFQKSIFDQNPIYKIASGPDGNKPIERVKWTKDFLKAFSRYRQPGINAMDLHFYNWNIEHESDTPTDFGEDDWYRVINGTRELDQIINQQADLIKEGLQNIPQPESSLDHRLDRIDLVVGEWGNWHRTAFTAKPALKQQVTMRDAISTALMLDILQKNSDKVTMACVAQTINVLNALILTEGDQTILTPNYDVFMMYKAHRGNSALKIQTNQDQKNVYTFASKKDGEIILDVINANLNDQVKLTVELNREIESISKDFLQSDRPTDFNSSDNPDLIRMQQTEVKDFSKGEITLELSPASVNVFHIKTID”: “not soluble”; “MSLTQMEMARKGVVSDEMKKVAEYEGVDVEIVRQKLAEGRAVLPKNKLHRIERPMIVGEGFSVKVNANIGTSQGFSSLEEEKEKARVAIEYGADSLMVLSTWGDLREIRRAIVEMSPVPVGSVPIYDSAVRSYQMKKNVVDFSEKDFFDMVIAHAEDGIDFMTIHVGVTRRVLDRIKSSRRVLKIVSRGGAIIAGWMIKNNKENPFYEHFDELLDIAKDYDITLSLGDGMRPGAVVDASDAQQFEELFVMGELVERAREKGVQVMLEGPGHVPLNEVEMNVRLMKKIGKGAPIFLLGPLPTDRAMGYDHIACAIGGALAGYYGADFLCYVTPSEHISLPDVEDVREGVIASKIAAIVADVARGNKKAWELEKKMALARKNFDWETMFSLSLGKDVAKKKYEERPYPDKGCSMCGPFCAIKIAEEFSEGHHHHHH”: “soluble”. For “MGSDKIHHHHHHMSNANPSRLGMVNGTGADDALFLKVFGGEVLTTFAENNVFLPLTMSRTITSGKSAQFPVLGKNTAYYHVPGAELNGNNILNAERVITVDGLLVSPVFIAKIDEAKTHYDVRSQYTSECGASLSNQADRTISQVLINAARSTATITGGFGGTKLVDAAFGTDGDKLAAGIFGIAQTFDEKDVPETDRYAAVRPAQYYLMVAGTKVLNRDWGGSGSYMDGKVLKVAGVSIVKSNHIPKSVITGSAQAAYDGDFTKTVAVGFHKSAVGTVKLLDLQTEGEYQIQRQGTLIVAKYAMGHGVLRPEAAVELASA”, the “soluble on expression in E. coli” value is “not soluble”.
